Target: human DNMT1 fragment (residues 351-1600) (human) (UniProt P26358)
Experiment: ITC

Kd [nM]	Substance
17	H3_(1-24)K9me3Ub2: H3 (1-24) K9me3 K18C/K23C peptide carrying two ubiquitin(G76C) through dichloroacetone linkage (from UniProt P68431;P0CG48) (complex)
91	H3_(1-24)Ub2: H3 (1-24) K18C/K23C peptide carrying two ubiquitin(G76C) through dichloroacetone linkage (from UniProt P68431;P0CG48) (complex)
